Our source for the abundance fitness values is the Human Domainome abundance scans (Beltran et al. 2025).

Sequences and labels used below:
B1: SWI/SNF complex subunit SMARCC2, residues 599 to 641; numbered along this chain, Q8TAQ2 (parent)
chain: REWTEQETLLLLEALEMYKDDWNKVSEHVGSRTQDECILHFLR

± gives the uncertainty stated by the source.

The variants in the series derive from B1. Kind of series: abundance fitness (aPCA) (normalised: wild type 0, dead -1); higher = more abundant; growth selection in yeast, the domain comes from the species named. The settings on record: Homo sapiens.
For the variant REWTEQETLLLLEALEMYYDDWNKVSEHVGSRTQDECILHFLR, the abundance fitness is -0.427 ± 0.15.

As to REWTEQETLLLLEWLEMYKDDWNKVSEHVGSRTQDECILHFLR, the abundance fitness is -1.39 ± 0.24. The value for REWTEQETLLLLEALEMYKDDWNKVSEHVGSRTQDECILHPLR was 0.43 ± 0.076; that for REWTEQETLLLLEALEMYKDDWNKVSEHVGSRTQTECILHFLR was -0.213 ± 0.12; that for REWTEQETLLLLEALEVYKDDWNKVSEHVGSRTQDECILHFLR was -0.017 ± 0.079.

In the case of REWTEQETLLLLEALEMYKDDWNKVSEHVGSRTQDECILSFLR, the abundance fitness was -0.383 ± 0.099.

Turning to REWWEQETLLLLEALEMYKDDWNKVSEHVGSRTQDECILHFLR, the abundance fitness was -0.623 ± 0.14. As to REWTEQEWLLLLEALEMYKDDWNKVSEHVGSRTQDECILHFLR, the abundance fitness is -0.205 ± 0.076. The value for REWTEEETLLLLEALEMYKDDWNKVSEHVGSRTQDECILHFLR was -0.485 ± 0.16; that for REWTECETLLLLEALEMYKDDWNKVSEHVGSRTQDECILHFLR was -0.394 ± 0.15; that for REWTERETLLLLEALEMYKDDWNKVSEHVGSRTQDECILHFLR was -0.003 ± 0.069. On to REWTEQETLLLLEALSMYKDDWNKVSEHVGSRTQDECILHFLR, for which the abundance fitness is -0.301 ± 0.084.

Regarding REWTEQETLLLLEALEMYKDDWNKGSEHVGSRTQDECILHFLR, the abundance fitness is -0.755 ± 0.11.

As for REWTEQETLLLLEALEMYKDDWNKVSEHVGSRTCDECILHFLR, the abundance fitness stood at 0.104 ± 0.088.

For the variant REWTEQETLLLLEALEMYKDDWNKVSEHVGSRTADECILHFLR, the abundance fitness is -0.235 ± 0.1. The value for REWTEQETLLLLEALEMMKDDWNKVSEHVGSRTQDECILHFLR was -0.48 ± 0.15. REWTEQETLLLLEALEMAKDDWNKVSEHVGSRTQDECILHFLR: the abundance fitness is -0.375 ± 0.1.

Consider REWTEQETLLLLEALEMCKDDWNKVSEHVGSRTQDECILHFLR, for which the abundance fitness was -0.501 ± 0.11. The same measure for RTWTEQETLLLLEALEMYKDDWNKVSEHVGSRTQDECILHFLR: 0.414 ± 0.076; for RQWTEQETLLLLEALEMYKDDWNKVSEHVGSRTQDECILHFLR: 0.403 ± 0.14; for REWTEQETLLLLEALEMYKDDWNKVSEHVGRRTQDECILHFLR: -0.219 ± 0.11.

Consider REWTEQETLLLLEALEMYKDDWNHVSEHVGSRTQDECILHFLR, for which the abundance fitness is -0.139 ± 0.12. For REWTEQETLLLLEALEMYKDDWNFVSEHVGSRTQDECILHFLR, the abundance fitness worked out at 0.058 ± 0.13. As for REWTEQETLLLLEALEMYKDDWNMVSEHVGSRTQDECILHFLR, the abundance fitness turned out to be 0.259 ± 0.1. Regarding REWTEQETLLLLEALEMYKDDWNKVSEHVGSRTQDEWILHFLR, the abundance fitness is -0.924 ± 0.15.

For REWTEQETLQLLEALEMYKDDWNKVSEHVGSRTQDECILHFLR, the abundance fitness is -0.018 ± 0.14. With REWTEQETLLLLEALEMYKDDWNKVSEHPGSRTQDECILHFLR, the abundance fitness was -0.865 ± 0.11.

Regarding REWTEQETLLLLEALEMYKDVWNKVSEHVGSRTQDECILHFLR, the abundance fitness is -0.496 ± 0.09.

Consider REWTEQETLLLLEALEMYKDTWNKVSEHVGSRTQDECILHFLR, for which the abundance fitness is -0.336 ± 0.15. The value for REWTEQETLLLLEALEMYKDNWNKVSEHVGSRTQDECILHFLR was -0.314 ± 0.43. Regarding REWTEQETLLLLQALEMYKDDWNKVSEHVGSRTQDECILHFLR, the abundance fitness is -0.34 ± 0.093. The same measure for REWTEQETLLLLSALEMYKDDWNKVSEHVGSRTQDECILHFLR: -0.304 ± 0.071.

Take REWTEQETLLLLVALEMYKDDWNKVSEHVGSRTQDECILHFLR: the abundance fitness was -0.469 ± 0.089. With REWTEQNTLLLLEALEMYKDDWNKVSEHVGSRTQDECILHFLR, the abundance fitness was -0.948 ± 0.28. On to REWTEQPTLLLLEALEMYKDDWNKVSEHVGSRTQDECILHFLR, for which the abundance fitness was -0.804 ± 0.11. On to REWTEQDTLLLLEALEMYKDDWNKVSEHVGSRTQDECILHFLR, for which the abundance fitness was -0.557 ± 0.17. The same measure for EEWTEQETLLLLEALEMYKDDWNKVSEHVGSRTQDECILHFLR: 0.251 ± 0.11; for DEWTEQETLLLLEALEMYKDDWNKVSEHVGSRTQDECILHFLR: 0.232 ± 0.092; for IEWTEQETLLLLEALEMYKDDWNKVSEHVGSRTQDECILHFLR: 0.382 ± 0.083. As for REWTHQETLLLLEALEMYKDDWNKVSEHVGSRTQDECILHFLR, the abundance fitness was -0.153 ± 0.084.

With REWTLQETLLLLEALEMYKDDWNKVSEHVGSRTQDECILHFLR, the abundance fitness was -0.442 ± 0.086. Consider REWTEQETLLLLEALEMYKDDWNKVSEHVGSRTQDECILHFDR, for which the abundance fitness is 0.726 ± 0.088. Consider REWTEQETLLLLEALEMYKDDWNKVSEHVGSRTQDECILHFMR, for which the abundance fitness is 0.167 ± 0.13.

For the variant REWTEQETLLLLEALEMYKDDWNKVSEHVGSRTQDECILHFWR, the abundance fitness came out at 0.049 ± 0.14.

Turning to REWTEQETLLLLEAEEMYKDDWNKVSEHVGSRTQDECILHFLR, the abundance fitness was determined as 0.241 ± 0.065. Consider REWTEQETLLLLEACEMYKDDWNKVSEHVGSRTQDECILHFLR, for which the abundance fitness was 0.087 ± 0.1. The same measure for REWTEQETLLLLEALEMYKDDWNKVEEHVGSRTQDECILHFLR: 0.081 ± 0.12.

For REWTEQETLLLLEALEMYKDDWMKVSEHVGSRTQDECILHFLR, the abundance fitness was determined as 0.025 ± 0.13. For the variant REWTEQETLLLLEALEMYKDDWWKVSEHVGSRTQDECILHFLR, the abundance fitness was -0.131 ± 0.12. For REWTEQETLLLLEALEMYKDDWNKVSEHVGSRTQDECSLHFLR, the abundance fitness amounted to 0.224 ± 0.071. For REWTEQETLLLLEALEMYKDDWNKVSEHVGSRTQDECIVHFLR, the abundance fitness is -0.009 ± 0.075.

As for REWTEQETLLLLEALEMYKADWNKVSEHVGSRTQDECILHFLR, the abundance fitness was -0.181 ± 0.071. The value for REWTEQETLLLLEALEMYKGDWNKVSEHVGSRTQDECILHFLR was 0.005 ± 0.064; that for REWTEQETLLLLEALEMYKNDWNKVSEHVGSRTQDECILHFLR was -0.031 ± 0.13; that for REWTEQETLLLLEALEMYKDDWNKVSDHVGSRTQDECILHFLR was -0.209 ± 0.14. The same measure for REWTEQETLLLLEALEMYKDDWNKVSLHVGSRTQDECILHFLR: -0.473 ± 0.095; for REWTEQETLLLLEALEMYKDDWNKVSNHVGSRTQDECILHFLR: -0.042 ± 0.095; for REWTEQETLLLLEALEMYKDDWNKVSEHVGSRTQDPCILHFLR: -0.783 ± 0.29. The same measure for REKTEQETLLLLEALEMYKDDWNKVSEHVGSRTQDECILHFLR: 0.681 ± 0.43.
